The record followed here is PMC5885369, “2-Oxoglutarate regulates binding of hydroxylated hypoxia-inducible factor to prolyl hydroxylase domain 2† †Electronic supplementary information (ESI) available: Details of experimental procedures and additional experiments. See DOI: 10.1039/c8cc00387d” (Chemical Communications (Cambridge, England), 2018).

Square brackets hold non-standard residues; d marks the D form. Ends that are not written are not given here. Hyp = O=C(O)[C@@H]1C[C@@H](O)CN1

The assay concerns the target T1, prolyl hydroxylase domain 2, PHD2_(181–426) (human, UniProt Q9GZT9 181-426).
T1 construct: Used apo, or with Fe(II), Zn(II), 2OG, succinate or fumarate; also called tPHD2; apo-tPHD2; source: recombinantly expressed
Nature of the assay: ITC; apo-tPHD2. Conditions: both partners purified.

T1 sequence (Q9GZT9 181-426): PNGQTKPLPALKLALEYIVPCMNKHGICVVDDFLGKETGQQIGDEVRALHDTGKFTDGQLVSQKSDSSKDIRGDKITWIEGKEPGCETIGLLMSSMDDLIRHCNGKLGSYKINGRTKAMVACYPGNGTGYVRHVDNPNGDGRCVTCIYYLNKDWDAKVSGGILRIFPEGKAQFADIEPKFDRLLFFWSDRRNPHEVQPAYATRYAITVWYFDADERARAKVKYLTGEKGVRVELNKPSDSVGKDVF

As a reminder, the Kd is the equilibrium constant for the complex coming apart. DLDLEMLA[Hyp]YIPMDDDFQL [hydroxylated 19-mer HIF-1α CODD peptide] yielded a Kd of 4.6 ± 1.4 µM.
